The source of these data is patent US20260125446A1 (Eli Lilly, published 2026).

B1: RLN Analog 4 (other)
chain: EVQLLESGGGLVQPGGSLRLSCAASGRYIDETAVAWFRQAPGKEREFVAGIGGGVDITYYADSVKGRFTISRDNSKNTLYLQMNSLRPEDTAVYYCAARPGRPLITSKVADLYPYWGQGTLVTVSSPGPQPGPQPGPQPGPQPGPQPGPQPGPQPGPQSWMEEVIKLCGRELVRAQIAICGMSTWSGGGSGGSGGGQLYSALANKCCHVGCTKRSLARFC
notes: Single-chain fusion: VHH - (PGPQ)8 L1 - RLN2 B chain (desB1) - L2 - RLN2 A chain
B2: RLN Analog 8 (other)
chain: B1 chain with E44G
notes: as for B1
B3: RLN Analog 3 (other)
chain: EVQLLESGGGLVQPGGSLRLSCAASGRYIDETAVAWFRQAPGKEREFVAGIGGGVDITYYADSVKGRFTISRDNSKNTLYLQMNSLRPEDTAVYYCAARPGRPLITSKVADLYPYWGQGTLVTVSSGGGGQGGGGQGGGGQGGGGQGGGGQSWMEEVIKLCGRELVRAQIAICGMSTWSGGGSGGSGGGQLYSALANKCCHVGCTKRSLARFC
notes: Single-chain fusion: VHH - (G4Q)5 L1 - RLN2 B chain (desB1) - L2 - RLN2 A chain
B4: RLN Analog 7 (other)
chain: B3 chain with E44G
notes: as for B3
B5: RLN Analog 11 (other)
chain: EVQLLESGGGLVQPGGSLRLSCAASGRYIDETAVAWFRQAPGKEREFVAGIGGGVDITYYADSVKGRFTISRDNSKNTLYLQMNSLRPEDTAVYYCAARPGRPLITSKVADLYPYWGQGTLVTVSSGGGGQGGGGQGGGGQGGGGQGGGGQSWMEEVIKLCGRELVRAQIAICGMSTWSGGGSGGSGGSGGGALANKCCHVGCTKRSLARFC
notes: Single-chain fusion: VHH - (G4Q)5 L1 - RLN2 B chain (desB1) - L2 of thirteen residues - RLN2 A chain (desA1-4)
B6: RLN Analog 12 (other)
chain: B5 chain with E44G
notes: as for B5

Where a chain is given by its changes, count along the chain named. In names and notes the source's numbering stands.

The first assay deals with T1, rabbit serum albumin (rabbit, UniProt P49065 25-608).
T1 construct: Bought protein, immobilized on a CM5 chip by amine coupling; also called Rabbit SA
Put plainly: SPR (Biacore 8K), albumin immobilized on CM5 chip, 25 C. The procedure: (§1) The immobilization of the serum albumin to a Series S Sensor Chip CM5 surface is performed according to the manufacturer's instructions (Amine Coupling Kit BR-1000-50). Briefly, carboxyl groups on the sensor chip surfaces (flow cell 1 and 2) are activated by injecting 70 μL of a mixture containing 75 mg/mL EDC and 11.5 mg/mL NHS at 10 μL/min. Human, cynomolgus monkey, mouse, rat, pig, dog, cow and rabbit serum albumin are diluted in 10 mM sodium acetate pH 4.0 (BR-1003-49) at […] and then injected over the activated chip surfaces (flow cell 2, channel 1 to 8) at 10 μL/min for 180 sec (human, mouse, rat, pig and cow serum albumin are obtained from Sigma Aldrich (St. Louis, MO); cynomolgus monkey serum albumin is obtained from Hölzel Diagnostika (Cologne, Germany); dog serum albumin is obtained from Molecular Innovations (Novi, MI); and rabbit serum albumin is obtained from Fitzgerald Industries Intl. (Acton, MA). The various serum albumins are covalently immobilized through free amines onto a carboxymethyl dextran-coated sensor chip CM5 targeting a surface density of about 100 (62-145) RU. Excess reactive groups on the surfaces (flow cell 1 and 2) are deactivated by injecting 70 μL of 1 M ETA HCl—NaOH pH 8.5.
(§2) 150 μl of sample is individually injecting sequentially across the immobilized serum albumins on the chip's surface and dissociating for 600 sec at 50 μL/min flow rate at 25° C. The surface is regenerated by injecting 10 mM glycine-HCl pH 1.5 (BR-1003-54) at 50 μL/min for 100 sec. The resulting sensorgrams are analyzed using Biacore 8K Insight Evaluation Software (version 2.0.15.12933) 1:1 binding kinetics model fitting to calculate the binding kinetic parameter association rate (ka), dissociation rate (kd), and equilibrium dissociation constant (KD).
Regarding B1, the binding result was “no binding (tested: 1000 nM (highest concentration tested))”.
As for B2, the binding result is recorded as “no binding (tested: 1000 nM (highest concentration tested))”.
Take B3: the binding result is “no binding (tested: 1000 nM (highest concentration tested))”.
On to B4, for which the binding result is reported as “no binding (tested: 1000 nM (highest concentration tested))”.
For B5, the binding result is given as “no binding (tested: 1000 nM (highest concentration tested))”.
Regarding B6, the binding result is reported as “no binding (tested: 1000 nM (highest concentration tested))”.

Another assay has as its target T2, cow serum albumin (cow, UniProt P02769 25-607).
T2 construct: Bought protein, immobilized on a CM5 chip by amine coupling; also called Cow SA
Put plainly: SPR (Biacore 8K), albumin immobilized on CM5 chip, 25 C, steady state. The procedure: as §1
150 μl of sample is individually injecting sequentially across the immobilized serum albumins on the chip's surface and dissociating for 600 sec at 50 μL/min flow rate at 25° C. The surface is regenerated by injecting 10 mM glycine-HCl pH 1.5 (BR-1003-54) at 50 μL/min for 100 sec. The resulting sensorgrams are analyzed using Biacore 8K Insight Evaluation Software ([…]).
Background: Surface plasmon resonance follows binding to a sensor surface in real time, without labels.
For the molecule B1, binding was characterised by a dissociation constant (Kd) of 37 nM.
In the case of B2, the Kd (usually the concentration at which binding is half-saturated) was found to be 21 nM.
The molecule B3 returned a Kd of 26 nM.
The molecule B4 had a Kd of 25 nM.
Turning to B5, binding was characterised by a dissociation constant (Kd) of 27 nM.
Still for that read-out and setting: the same measure for B6: 30 nM.

A further assay deals with T3, human serum albumin (human, UniProt P02768 25-609).
T3 construct: Bought protein, immobilized on a CM5 chip by amine coupling; also called Human SA
Put plainly: SPR (Biacore 8K), albumin immobilized on CM5 chip, 25 C, 1:1 kinetic fit. The procedure: as §1, §2
As to B1, the affinity, expressed as Kd, was 0.089 nM; the koff (as a rule, the first-order rate constant of dissociation) amounted to 0.00011 s⁻¹; the kon (as a rule, the second-order rate constant of association) came to 1.2e+06 M⁻¹ s⁻¹.
B2 yielded a dissociation constant Kd of 0.078 nM, a koff of 0.00011 s⁻¹ and a kon of 1.5e+06 M⁻¹ s⁻¹.
The molecule B3 displayed a Kd of 0.076 nM, an off-rate constant (koff) of 0.00011 s⁻¹ and a kon of 1.4e+06 M⁻¹ s⁻¹.
With B4, the affinity, expressed as Kd, was 0.063 nM; the koff stood at 0.00012 s⁻¹; the kon was found to be 1.9e+06 M⁻¹ s⁻¹.
Take B5: the Kd is 0.17 nM, the koff came out at 0.00021 s⁻¹ and the kon stood at 1.2e+06 M⁻¹ s⁻¹.
On the same counts, the results for B6 are 0.14 nM, 0.00019 s⁻¹ and 1.4e+06 M⁻¹ s⁻¹.

In the next assay the target is T4, cynomolgus monkey serum albumin (cynomolgus monkey, UniProt A2V9Z4 25-608).
T4 construct: Bought protein, immobilized on a CM5 chip by amine coupling; also called Cyno SA
The assay is described as above. The procedure:
as §1, §2
On to B1, for which the equilibrium dissociation constant (Kd) turned out to be 0.42 nM, the koff was found to be 0.00053 s⁻¹ and the kon came out at 1.3e+06 M⁻¹ s⁻¹.
With B2, the dissociation constant (Kd) came out at 0.32 nM, the dissociation rate constant (koff) came to 0.00059 s⁻¹ and the kon amounted to 1.9e+06 M⁻¹ s⁻¹.
B3 yielded a Kd of 0.36 nM, a koff of 0.00054 s⁻¹ and a kon of 1.5e+06 M⁻¹ s⁻¹.
B4 had a Kd of 0.29 nM, a koff of 0.00059 s⁻¹ and an on-rate constant (kon) of 2.1e+06 M⁻¹ s⁻¹.
B5: the affinity, expressed as Kd, was 0.48 nM; the koff turned out to be 0.00064 s⁻¹; the association rate constant (kon) was found to be 1.3e+06 M⁻¹ s⁻¹.
Consider B6, for which the affinity, expressed as Kd, was 0.47 nM; the koff turned out to be 0.0007 s⁻¹; the kon amounted to 1.5e+06 M⁻¹ s⁻¹.

The target of a further assay is T5, mouse serum albumin (mouse, UniProt P07724 25-608).
T5 construct: Bought protein, immobilized on a CM5 chip by amine coupling; also called Mouse SA
The assay is described as above. The procedure:
as §1, §2
B1 showed a Kd of 3 nM, a koff of 0.0039 s⁻¹ and a kon of 1.3e+06 M⁻¹ s⁻¹.
B2 showed a Kd of 1.8 nM, a koff of 0.0039 s⁻¹ and a kon of 2.2e+06 M⁻¹ s⁻¹.
Molecule B3 yielded a Kd of 2.4 nM, a koff of 0.004 s⁻¹ and a kon of 1.7e+06 M⁻¹ s⁻¹.
In turn, B4 displayed a Kd of 2.1 nM, an off-rate constant (koff) of 0.0041 s⁻¹ and a kon of 2e+06 M⁻¹ s⁻¹.
The molecule B5 yielded an equilibrium dissociation constant (Kd) of 3.6 nM, a koff of 0.005 s⁻¹ and a kon of 1.4e+06 M⁻¹ s⁻¹.
On to B6, for which the Kd is 2.6 nM, the off-rate (koff) was 0.0049 s⁻¹ and the kon was determined as 1.8e+06 M⁻¹ s⁻¹.

The target in a further assay is T6, rat serum albumin (rat, UniProt P02770 25-608).
T6 construct: Bought protein, immobilized on a CM5 chip by amine coupling; also called Rat SA
Described as above. The protocol: as §1, §2
B1 had a Kd of 2.1 nM, a koff of 0.0026 s⁻¹ and a kon of 1.2e+06 M⁻¹ s⁻¹.
On the same counts, the results for B2 are 1.7 nM, 0.0028 s⁻¹ and 1.6e+06 M⁻¹ s⁻¹.
As to B3, binding was characterised by a dissociation constant (Kd) of 1.6 nM, the koff is 0.0027 s⁻¹ and the on-rate constant (kon) stood at 1.7e+06 M⁻¹ s⁻¹.
B4 returned a Kd of 1.4 nM, a koff of 0.0028 s⁻¹ and a kon of 2e+06 M⁻¹ s⁻¹.
On the same counts, the results for B5 are 1.3 nM, 0.0028 s⁻¹ and 2.1e+06 M⁻¹ s⁻¹.
B6: binding was put at a Kd of 1.7 nM, the koff was 0.0033 s⁻¹ and the kon was found to be 2e+06 M⁻¹ s⁻¹.

Another assay deals with T7, pig serum albumin (pig, UniProt P08835 25-607).
T7 construct: Bought protein, immobilized on a CM5 chip by amine coupling; also called Pig SA
The description is as above. The protocol:
as §1, §2
The molecule B1 yielded a Kd of 6.2 nM, a koff of 0.0053 s⁻¹ and a kon of 860000 M⁻¹ s⁻¹.
On the same counts, the results for B2 are 4.1 nM, 0.0052 s⁻¹ and 1.3e+06 M⁻¹ s⁻¹.
With B3, the Kd was found to be 4.8 nM, the koff came to 0.0053 s⁻¹ and the kon was 1.1e+06 M⁻¹ s⁻¹.
In turn, B4 showed a Kd of 3.7 nM, a koff of 0.0054 s⁻¹ and a kon of 1.5e+06 M⁻¹ s⁻¹.
As for B5, the Kd is 7.3 nM, the koff came out at 0.0062 s⁻¹ and the kon is 850000 M⁻¹ s⁻¹.
Molecule B6 displayed a dissociation constant (Kd) of 4.2 nM, a koff of 0.0058 s⁻¹ and a kon of 1.4e+06 M⁻¹ s⁻¹.

The target of the next assay is T8, dog serum albumin (dog, UniProt P49822 25-608).
T8 construct: Bought protein, immobilized on a CM5 chip by amine coupling; also called Dog SA
The assay is described as above. The procedure:
as §1, §2
In turn, B1 yielded a Kd of 1 nM, a koff of 0.0014 s⁻¹ and an association rate constant (kon) of 1.4e+06 M⁻¹ s⁻¹.
In turn, B2 gave a Kd of 0.66 nM, a koff of 0.0015 s⁻¹ and a kon of 2.3e+06 M⁻¹ s⁻¹.
For B3, binding was put at a Kd of 0.7 nM, the koff is 0.0014 s⁻¹ and the kon came to 2e+06 M⁻¹ s⁻¹.
The matching figures for B4: 0.69 nM, 0.0015 s⁻¹ and 2.2e+06 M⁻¹ s⁻¹.
Turning to B5, the Kd was found to be 1.3 nM, the koff was 0.0017 s⁻¹ and the kon came out at 1.4e+06 M⁻¹ s⁻¹.
In turn, B6 displayed a Kd of 0.77 nM, a dissociation rate constant (koff) of 0.0016 s⁻¹ and a kon of 2.1e+06 M⁻¹ s⁻¹.
